Data set [1] concerns HEK-293 (human embryonic kidney) cells. Description: Cell viability, healthy HEK-293 cells. Format: cell-based. The settings on record: 3 h.
Data set [2] is described as follows: Body weight of mice in the B16F10 metastasis experiment. The settings on record: 0.1, 1 and 3 mg/kg Psd1 i.v. with B16F10 cells, 21 days; animals with B16F10 only lost weight. Format: in vivo, mouse. An excerpt:
Figure 6 Protective effects of Psd1 on a model of experimental lung metastasis in vivo. B16F10 mouse melanoma tumors were established by intravenous injection of 2.5 × 10^5 B16F10 cells into C57BL/6 mice. (A) After 21 days, mice from each experimental group were sacrificed, and the number of visible lung metastatic nodules was quantified. Treatment of the animals inoculated with melanoma cells plus Psd1 caused a dose-dependent reduction in the number of lung metastases. Black lines represent the mean ± SEM of two independent experiments analyzed by one-way ANOVA and Bonferroni’s multiple comparison test. **** p < 0.0001 B16F10 vs. phosphate buffer solution (PBS); **** p < 0.0001 B16F10 vs. Psd1 1 mg/kg; **** p < 0.0001 B16F10 vs. just Psd1 1 mg/kg (without B16F10 cells); *** p < 0.001 B16F10 vs. Psd1 3 mg/kg; * p < 0.05 B16F10 vs. Psd1 0.5 mg/kg. (B) Representative images of lung metastatic nodules from animals that received just PBS or B16F10 cells alone or together with 0.1 mg/kg or 1 mg/kg Psd1. Bar = 2 mm. (C) Animal weights were acquired every two days. Weight variation was calculated as (weight on that day (weight of the first day × 100 − 100)). Only the days with higher weight differences between animals injected with only B16F10 cells and those that received cells plus Psd1 or PBS alone are represented. […]

On to “Psd1: 46-amino acid residue plant defensin isolated from pea seeds, expressed in Pichia pastoris (PDB 1JKZ) (KTCEHLADTYRGVCFTNASCDDHCKNKAHLISGTCHNWKCFCTQNC)”, for which the HEK-293 cell viability entry in data set [1] is given as “no alteration in cell viability”. The Body weight entry in data set [2] is listed as “gained weight throughout the assay”.

For the origin of these results see PMC7219108, “Pisum sativum Defensin 1 Eradicates Mouse Metastatic Lung Nodules from B16F10 Melanoma Cells” (International Journal of Molecular Sciences, 2020).
